This is an account of results in article PMC8909857.

This test addresses Channelrhodopsin-2 (D156C) (Chlamydomonas reinhardtii) (UniProt Q8RUT8). Put plainly: SDS-PAGE; Coomassie-stained SDS-PAGE of SEC-purified fractions (elution volumes 11 to 15 mL); dimer partially SDS-resistant.

A word on the stoichiometry N: it is the number of molecules, sites or subunits per partner or assembly.

In the case of “Channelrhodopsin-2 (D156C) (from UniProt Q8RUT8 1-737) (natural protein)”, the stoichiometry N turned out to be 2.
